Reference: the supplement of paper PMC7877785
± gives the uncertainty stated by the source.

Experiment: self-splicing fitness, log relative to wild type (ln ratio); higher = more splicing; Tetrahymena group I intron in knt gene, E. coli kanamycin selection, DiMSum; sequences stand for … in CUCUCU…GGAGGGAAAAGUUAUCAGGCAUGCACCUGGUAGCUAGUCUUUAAACCAAUAGAUUGCAUCGGUUUAAAAGGCAAGACCGUCAAAUUGCGGGAAAGGGGUCAACAGCCGUUCAGUACCAAGUCUCAGGGGAAACUUUGAGAUGGCCUUGCAAAGGGUAUGGUAAUAAGCUGACGGACAUGGUCCUAACCACGCAGCCAAGUCCUAAGUCAACAGAUCUUCUGUUGAUAUGGAUGCAGUUCACAGACUAAAUGUCGGUCGGGGAAGAUGUAUUCUUCUCAUAAGAUAUAGUCGGACCUCUCCUUAAUGGGAGCUAGCGGAUGAAGUGAUGCAACACUGGAGCCGCUGGGAACUAAUUUGUAUGCGAAAGUAUAUUGAUUAGUUUUGGAGUACUCGUGGUCG
Summary of the method: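 Pooled colonies went to amplicon sequencing on an Illumina HiSeq 2500 after six replicate transformations. The plates were LB agar with 100 μg/mL carbenicillin, 50 μM IPTG and 0.2% rhamnose, with or without 25 μg/mL kanamycin, incubated overnight at 37°C or 30°C. The E. coli BL21(DE3) library had all eight P1ex-region intron nucleotides randomised, the intron placed in the knt kanamycin-resistance gene on pET-22b(+). DiMSum fitness is the error-weighted combination of replicate fold changes, kanamycin against none, normalised to wild type.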

Sequence	self-splicing fitness (ln) (30 °C)	self-splicing fitness (ln) (37 °C)
AACCAGCAAUAUUACGGCAC	-0.615 ± 0.055	-0.257 ± 0.079
AACCAGCAAUAUUACGGGGU	-3.73 ± 0.14	-2.88 ± 0.16
AACCAGCAAUAUUACGGGUU	-2.89 ± 0.078	-3.19 ± 0.13
AACCAGCAAUAUUACGGUCG	-0.366 ± 0.049	0.214 ± 0.07
AACCAGCAAUAUUACGUAAA	-1.13 ± 0.076	-0.76 ± 0.084
AACCAGCAAUAUUACGUCAC	-3.92 ± 0.13	-2.66 ± 0.13
AACCAGCAAUAUUACGUGCU	-3.52 ± 0.16	-1.94 ± 0.15
AACCAGCAAUAUUACGUUAC	-2.93 ± 0.14	-2.52 ± 0.17
AACGAGCAAUAUUACGACCA	-2.23 ± 0.18	-1.53 ± 0.19
AACGAGCAAUAUUACGACGA	-2.08 ± 0.17	-0.282 ± 0.14
AACGAGCAAUAUUACGAGGG	-3.03 ± 0.36	-2.35 ± 0.29
AACGAGCAAUAUUACGCACU	-1.23 ± 0.11	-0.611 ± 0.11
AACGAGCAAUAUUACGCCAU	-2.91 ± 0.27	-1.52 ± 0.27
AACGAGCAAUAUUACGCCUG	-3.77 ± 0.32	–
AACGAGCAAUAUUACGCGGG	-3.64 ± 0.42	-2.32 ± 0.22
AACGAGCAAUAUUACGCUCA	-1.83 ± 0.12	-0.666 ± 0.13
AACGAGCAAUAUUACGCUUC	-3.1 ± 0.25	-1.7 ± 0.3
AACGAGCAAUAUUACGCUUU	-3.9 ± 0.17	-2.31 ± 0.14
AACGAGCAAUAUUACGGACG	-2.19 ± 0.2	-1.05 ± 0.23
AACGAGCAAUAUUACGGACU	-1.88 ± 0.13	-0.603 ± 0.21
AACGAGCAAUAUUACGGGCA	-2.92 ± 0.24	-2.38 ± 0.24
AACGAGCAAUAUUACGGGCG	-3.07 ± 0.15	-1.11 ± 0.19
AACGAGCAAUAUUACGGGUG	-3.4 ± 0.17	-2.34 ± 0.2
AACGAGCAAUAUUACGGUCU	-2.03 ± 0.093	-0.898 ± 0.1
AACGAGCAAUAUUACGUCUG	-3.17 ± 0.2	-1.63 ± 0.16

Sequence	self-splicing fitness (ln) (30 °C)	self-splicing fitness (ln) (37 °C)
AACGAGCAAUAUUACGUGAG	-3.58 ± 0.17	-0.98 ± 0.13
AACGAGCAAUAUUACGUGGC	-3.85 ± 0.3	-2.94 ± 0.27
AACGAGCAAUAUUACGUUGU	-3.8 ± 0.098	-3.3 ± 0.13
AACUAGCAAUAUUACGAAGA	-2.62 ± 0.14	-1.05 ± 0.12
AACUAGCAAUAUUACGAAUA	-2.71 ± 0.2	-1.6 ± 0.13
AACUAGCAAUAUUACGACAC	-1.04 ± 0.085	-0.404 ± 0.11
AACUAGCAAUAUUACGACUG	-0.606 ± 0.1	-0.989 ± 0.13
AACUAGCAAUAUUACGAGUC	-3.83 ± 0.33	-1.77 ± 0.19
AACUAGCAAUAUUACGAGUG	-0.165 ± 0.059	-0.29 ± 0.074
AACUAGCAAUAUUACGAGUU	-3.44 ± 0.24	-1.89 ± 0.22
AACUAGCAAUAUUACGAUCA	-0.213 ± 0.099	-0.0939 ± 0.11
AACUAGCAAUAUUACGCACG	-0.871 ± 0.098	-0.361 ± 0.12
AACUAGCAAUAUUACGCAUA	-1.64 ± 0.15	-1.1 ± 0.14
AACUAGCAAUAUUACGCGAC	-2.49 ± 0.27	–
AACUAGCAAUAUUACGCUAG	-4.12 ± 0.23	-2.81 ± 0.22
AACUAGCAAUAUUACGCUCU	-0.509 ± 0.12	0.627 ± 0.11
AACUAGCAAUAUUACGCUGC	-2.59 ± 0.14	-2.29 ± 0.18
AACUAGCAAUAUUACGGAAU	-2.42 ± 0.1	-1.83 ± 0.14
AACUAGCAAUAUUACGGACC	-0.676 ± 0.071	-0.0449 ± 0.11
AACUAGCAAUAUUACGGCGA	-0.842 ± 0.1	-0.155 ± 0.13
AACUAGCAAUAUUACGGCUC	-0.662 ± 0.1	-0.155 ± 0.11
AACUAGCAAUAUUACGGGGA	-1.3 ± 0.12	-0.982 ± 0.13
AACUAGCAAUAUUACGGGUC	-1.88 ± 0.24	-1.78 ± 0.22
AACUAGCAAUAUUACGUCAC	-2.87 ± 0.18	–
